The labels stand for the following.
T1: HA-Fas 1-210:GFP (human, UniProt P25445)
T1 chain: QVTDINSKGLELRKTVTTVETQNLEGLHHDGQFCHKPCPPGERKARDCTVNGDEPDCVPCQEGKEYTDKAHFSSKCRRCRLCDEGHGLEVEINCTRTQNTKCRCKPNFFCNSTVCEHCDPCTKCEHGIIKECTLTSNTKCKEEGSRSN

T2: Fas (human, UniProt P25445)
T2 chain: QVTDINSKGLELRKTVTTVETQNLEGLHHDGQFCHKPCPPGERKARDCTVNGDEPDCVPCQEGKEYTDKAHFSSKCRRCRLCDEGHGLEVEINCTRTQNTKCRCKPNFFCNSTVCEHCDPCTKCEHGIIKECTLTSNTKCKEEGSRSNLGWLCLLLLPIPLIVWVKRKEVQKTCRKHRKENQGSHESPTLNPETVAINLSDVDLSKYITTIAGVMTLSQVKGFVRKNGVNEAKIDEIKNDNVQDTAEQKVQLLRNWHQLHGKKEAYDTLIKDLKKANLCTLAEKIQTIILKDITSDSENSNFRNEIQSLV

T3: Fas Pt 2 (deletion 52-96) (human, UniProt P25445)
T3 chain: T1 chain

T4: p60ΔCD-GFP-HA (human, UniProt P19438)
T4 chain: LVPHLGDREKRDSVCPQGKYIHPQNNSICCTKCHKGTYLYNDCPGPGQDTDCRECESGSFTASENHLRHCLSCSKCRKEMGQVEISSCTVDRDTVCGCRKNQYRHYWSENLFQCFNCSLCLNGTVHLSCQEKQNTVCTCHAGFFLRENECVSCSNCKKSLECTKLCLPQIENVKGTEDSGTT

B1: Fas deletion 1-43 (protein)
chain: T1 chain
B2: Fas deletion 1-66 (protein)
chain: T1 chain
B3: HVEMΔCD:GFP (protein)
chain: LPSCKEDEYPVGSECCPKCSPGYRVKEACGELTGTVCEPCPPGTYIAHLNGLSKCLQCQMCDPAMGLRASRNCSRTENAVCGCSPGHFCIVQDGDHCAACRAYATSSPGQRVQKGGTESQDTLCQNCPPGTFSPNGTLEECQHQTKCSWLVTKAGAGTSSSHWV
B4: Fas ligand (trimerized) (protein)
chain: PSPPPEKKELRKVAHLTGKSNSRSMPLEWEDTYGIVLLSGVKYKKGGLVINETGLYFVYSKVYFRGQSCNNLPLSHKVYMRNSKYPQDLVMMEGKMMSYCTTGQMWARSSYLGAVFNLTSADHLYVNVSELSLVNFEESQTFFGLYKL
B5: p60ΔCD K32A (protein)
chain: T4 chain with K32A
B6: p60ΔCD KY19/20AA (protein)
chain: T4 chain with K19A, Y20A

In assay [1] the target is T1, HA-Fas 1-210:GFP. Put plainly: other (co-immunoprecipitation).
Assay [2] has as its target T2, Fas. Put plainly: other (co-immunoprecipitation).
For assay [3], the target named is B2. The assay can be described thus: FACS.
Assay [4] deals with T3, Fas Pt 2 (deletion 52-96). The assay can be described thus: FACS.
Assay [5] addresses T4, p60ΔCD-GFP-HA. Put plainly: other (co-immunoprecipitation).

Positions count from the first letter of the chain named. Numbers in names are those of the source.

Turning to B1, in assay [1], the binding result is recorded as “no binding”.
Take B2: the binding result in assay [1] was “no binding”.
As to B3, the binding result in assay [2] is “no binding”.
Take B4: the binding result in assay [3] and in assay [4] was “no binding” each time.
For the molecule B5, the binding result in assay [5] was “no binding”.
Consider B6, for which the binding result in assay [5] is given as “no binding”.

Source of the values: patent US9051392 (dated 2015).
